From US8440430, “Modified dicer polypeptide and methods of use thereof” (The Regents of the University of California)

T1: ΔDEAD human Dicer (lacks DExD/H-box domain, aa 1-604 deleted) (Homo sapiens, UniProt Q9UPY3 SEQ:1-1318)
T1 chain: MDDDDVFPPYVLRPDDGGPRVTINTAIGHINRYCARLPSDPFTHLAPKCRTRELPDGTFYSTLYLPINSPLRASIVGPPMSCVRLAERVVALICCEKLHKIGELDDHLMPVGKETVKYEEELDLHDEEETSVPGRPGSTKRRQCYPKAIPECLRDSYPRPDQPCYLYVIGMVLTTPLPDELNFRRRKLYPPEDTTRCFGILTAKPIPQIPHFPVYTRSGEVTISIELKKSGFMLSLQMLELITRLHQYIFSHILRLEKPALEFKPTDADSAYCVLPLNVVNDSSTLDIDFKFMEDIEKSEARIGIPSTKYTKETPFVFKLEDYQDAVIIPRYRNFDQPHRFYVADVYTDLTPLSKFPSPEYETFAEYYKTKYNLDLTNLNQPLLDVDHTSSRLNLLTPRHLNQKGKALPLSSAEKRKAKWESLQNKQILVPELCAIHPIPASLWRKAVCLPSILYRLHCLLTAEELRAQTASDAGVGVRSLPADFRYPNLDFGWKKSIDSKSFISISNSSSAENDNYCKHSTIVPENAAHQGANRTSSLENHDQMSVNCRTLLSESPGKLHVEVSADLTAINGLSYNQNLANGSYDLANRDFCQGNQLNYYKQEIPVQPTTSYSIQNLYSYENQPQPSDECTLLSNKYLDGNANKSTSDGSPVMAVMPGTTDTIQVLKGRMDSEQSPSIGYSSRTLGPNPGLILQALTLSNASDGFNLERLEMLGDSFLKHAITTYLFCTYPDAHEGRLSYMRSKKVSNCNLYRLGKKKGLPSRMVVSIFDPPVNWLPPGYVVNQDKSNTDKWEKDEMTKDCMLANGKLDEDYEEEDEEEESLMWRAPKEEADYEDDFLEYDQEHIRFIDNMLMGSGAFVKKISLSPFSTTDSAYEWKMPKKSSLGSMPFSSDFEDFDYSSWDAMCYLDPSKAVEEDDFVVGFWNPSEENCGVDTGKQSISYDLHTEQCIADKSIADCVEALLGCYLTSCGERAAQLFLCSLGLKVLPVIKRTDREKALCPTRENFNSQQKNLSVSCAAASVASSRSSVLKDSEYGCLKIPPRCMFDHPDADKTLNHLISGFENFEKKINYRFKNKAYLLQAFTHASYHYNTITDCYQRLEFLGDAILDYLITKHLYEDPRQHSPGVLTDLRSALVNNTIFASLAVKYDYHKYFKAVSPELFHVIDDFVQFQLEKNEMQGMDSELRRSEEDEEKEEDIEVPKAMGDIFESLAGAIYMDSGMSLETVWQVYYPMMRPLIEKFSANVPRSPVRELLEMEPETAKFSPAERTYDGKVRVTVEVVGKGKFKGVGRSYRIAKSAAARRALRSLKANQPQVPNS


Columns and labels:
Details in all cases: tags: N-terminal His6 removed by site-specific protease, baculovirus/Sf9
[1] = target: wild-type human Dicer (flhDcr) (Homo sapiens, UniProt Q9UPY3 SEQ:1-1922); assay: filter; 5 mM EDTA, no free Mg2+, 25 mM NaCl, pH 7.5, room temperature
Description: A serial dilution of proteins were incubated in a buffer containing 20 mM Tris-Cl (pH 7.5), 25 mM NaCl, 5 mM EDTA, 1 mM dithiothreitol (DTT), 1% glycerol and ~0.5-1 nM (1500 c.p.m.) of ^32P-labeled duplex RNA substrate (one strand was labeled) at room temperature for 60 min […] After this incubation, 25 µl of each reaction were used for dot-blotting, which was conducted in a dot-blot apparatus equipped with 3 membranes of Tuffryn, Protran and Nytran (from top to bottom). After dried, the bound (on Protran) or free (on Nytran) RNAs were detected and quantified with Phosphoimager (GE Healthcare). Percentage of bound RNAs was calculated by 100 multiplied by the ratio of radioactivity (volumes) detected on the Protran membrane over the total input volumes (radioactivity). The bound RNAs (%) (Y-axle) were plotted against protein concentrations (X-axle). K_d was determined by global fitting to the equation of kobsd = (kmax ×[Dicer])(K_{1/2} + [Dicer])^-1, here $kobsd$ is the observed rate constant at a particular protein concentration, $kmax$ is the maximal rate constant with saturating protein, and K_{1/2} (or K_d) is the protein concentration that provides half the maximal rate. Curve fitting was conducted with KleidaGraph (Synery Software).
RNA. […] These values are similar to those measured previously (Provost et al, 2002; Vermeulen et al, 2005).

[2] = target: ΔDUF human Dicer (lacks DUF283) (Homo sapiens, UniProt Q9UPY3 SEQ:1-1922, del630-709); assay: filter; within three-fold of full-length; 5 mM EDTA; exact Kd only in figure
Description: (§1) After dried, the bound (on Protran) or free (on Nytran) RNAs were detected and quantified with Phosphoimager (GE Healthcare). Percentage of bound RNAs was calculated by 100 multiplied by the ratio of radioactivity (volumes) detected on the Protran membrane over the total input volumes (radioactivity). The bound RNAs (%) (Y-axle) were plotted against protein concentrations (X-axle). K_d was determined by global fitting to the equation of kobsd = (kmax ×[Dicer])(K_{1/2} + [Dicer])^-1, here $kobsd$ is the observed rate constant at a particular protein concentration, $kmax$ is the maximal rate constant with saturating protein, and K_{1/2} (or K_d) is the protein concentration that provides half the maximal rate. Curve fitting was conducted with KleidaGraph (Synery Software).
(§2) RNA. […] These values are similar to those measured previously (Provost et al, 2002; Vermeulen et al, 2005). […] The protein lacking both the DExD/H-box domain and the dsRBD (2DD) bound ~3-4 fold more weakly to either substrate relative to full-length Dicer (FIG. 3A-C). It is possible that this severely truncated protein is generally destabilized, or that the DExD/H-box domain plays a small but measurable role in substrate binding.

[3] = target: T1, ΔDEAD human Dicer (lacks DExD/H-box …); assay: as above
Description: as §1, §2

[4] = label: 5'-32P on one strand, perfect duplex with 2-nt 3' overhangs on both ends

Binder	Kd ([1]; label: 5'-32P, hairpin) [nM]	Kd relative to full-length Dicer (fold) ([2]; label: 5'-32P, hairpin)	Kd relative to full-length Dicer (fold) ([3]; label: 5'-32P, hairpin)	Kd [1, 4] [nM]	Kd relative to full-length Dicer (fold) [2, 4]	Kd relative to full-length Dicer (fold) [3, 4]
pre-hlet-7 hairpin RNA (ssRNA) RNA: UGAGGUAGUAGGUUGUAUAGUUUUAGGGUCACACCCACCACUGGGAGAUAACUAUACAAUCUACUGUCUUACC	30	≤ 3 fold of full-length Kd (30 nM)	≤ 3 fold of full-length Kd (30 nM)			
37ab duplex RNA (dsRNA) RNA 1: UGAGGUAGUAGGUUGUAUAGUUUGAAAGUUCACGAUU RNA 2: UCGUGAACUUUCAAACUAUACAACCUACUACCUCAUU				75	≤ 3 fold of full-length Kd (75 nM)	≤ 3 fold of full-length Kd (75 nM)
